# Measurements taken from patent US20250188188A1.
# B1: recombinant TNT020 (antibody, from another filing, V domains shown)
# VH: QVQLVQSGAEVKKPGASVKLSCTASGFNIKDDYIHWVKQAPGQGLEWIGRIDPADGHTKYAPKFQVKVTITADTSTSTAYLELSSLRSEDTAVYYCARYGYGREVFDYWGQGTTVTVSS
# VL: DIVLTQSPDSLAVSLGERATISCKASQSVDYDGDSYMNWYQQKPGQPPKILIYDASNLESGIPARFSGSGSGTDFTLTISSLEPEDFAIYYCQQSNEDPWTFGGGTKVEIKR
# Assays:
# [1] = target: active human C1s purified from human serum (CompTech, Tyler, TX, catalog number A104) (human) (UniProt P09871); assay: SPR, antibody captured via anti-human Fc, C1s in solution
# Chain of active human C1s purified from human serum (CompTech, Tyler, TX, catalog number A104) (human) (P09871 16-437, chain 1 of 2): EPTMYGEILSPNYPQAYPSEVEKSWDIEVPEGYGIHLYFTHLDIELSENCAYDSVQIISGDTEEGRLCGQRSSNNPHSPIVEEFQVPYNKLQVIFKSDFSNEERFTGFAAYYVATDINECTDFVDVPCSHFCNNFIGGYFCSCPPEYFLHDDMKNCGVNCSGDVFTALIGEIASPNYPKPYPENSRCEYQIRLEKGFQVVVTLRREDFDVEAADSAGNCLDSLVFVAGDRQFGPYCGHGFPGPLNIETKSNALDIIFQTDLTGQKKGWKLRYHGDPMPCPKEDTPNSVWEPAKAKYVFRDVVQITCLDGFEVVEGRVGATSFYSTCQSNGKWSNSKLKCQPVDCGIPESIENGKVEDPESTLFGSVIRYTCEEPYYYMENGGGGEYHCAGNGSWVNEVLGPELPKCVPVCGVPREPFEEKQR
# Chain of active human C1s purified from human serum (CompTech, Tyler, TX, catalog number A104) (human) (P09871 438-688, chain 2 of 2): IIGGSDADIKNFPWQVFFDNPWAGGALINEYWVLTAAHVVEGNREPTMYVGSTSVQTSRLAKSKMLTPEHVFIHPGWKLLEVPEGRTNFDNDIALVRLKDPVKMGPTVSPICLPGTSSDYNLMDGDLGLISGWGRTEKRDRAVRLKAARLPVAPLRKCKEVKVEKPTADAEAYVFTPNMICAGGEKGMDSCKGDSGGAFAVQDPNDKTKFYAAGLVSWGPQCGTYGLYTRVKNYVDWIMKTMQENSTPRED
# [2] = target: active human C1s purified from human serum (CompTech, Tyler, TX, catalog number A104) (human) (UniProt P09871); assay: cell-based or functional assay
binder,measurement,setting,value
B1,Kd,[1],3.77 nM
same,koff,[1],0.00134 s⁻¹
same,kon,[1],357000 M⁻¹ s⁻¹
same,"IC50, inhibition of C3b deposition on sensitized hRBCs in 7.5% human serum (flow cytometry), Donor A",[2],52.9 nM
same,"IC50, inhibition of C3b deposition on sensitized hRBCs in 7.5% human serum (flow cytometry), Donor B (1)",[2],238 nM
same,"IC50, inhibition of C3b deposition on sensitized hRBCs in 7.5% human serum (flow cytometry), Donor B (2)",[2],688 nM
same,"IC50, inhibition of sensitized hRBC lysis in 25% human serum, Donor 1",[2],20.9 nM
same,"IC50, inhibition of sensitized hRBC lysis in 25% human serum, Donor 2",[2],30.7 nM
same,"IC50, inhibition of sensitized hRBC lysis in 25% human serum, Donor 3",[2],14.6 nM
